Reference: the supplement of paper PMC12042874
± gives the uncertainty stated by the source.

Experiment: amyloid nucleation score (Sup35N fusion, yeast selection) (log enrichment); library NNK3; higher = more nucleation; inactive = no reads after selection
Summary of the method: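 The nucleation score equals the log enrichment of output over input reads from DiMSum, centred on the mode score of non-aggregating sequences. It was computed only for sequences with 100 or more input reads. The reads came from Illumina sequencing of plasmid inserts from psi-negative yeast expressing Sup35N fused to peptides of 20 random codons, induced with 100 μM copper sulfate for 24 hours and grown 7 days at 30°C without adenine and uracil.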

Substance | amyloid nucleation score
HKIWVVQQWGRRRQQ | inactive
GELKFLVLNRFE | inactive
YWRFAMYQCIQFSRR | inactive
SNCGL | 0.832 ± 0.28
FAGCWTVTSMGFCNRSGMKL | inactive
KHSDL | inactive
VYYFRQLFPICIDNQARTWC | inactive
MLQWVESLGGICITRSVLIL | inactive
SFFKNGGELVMSCVSVSPDI | inactive
KGLVYSELNYYLLSWY | inactive
EGGDHCMNGHCVCRVGWLWA | inactive
RSCVLMVASVSNRNRPGDVS | inactive
TCKWFFHHAIDCLRKRISME | inactive
MIIYVKLPYRCLFFERHSDT | inactive
YRRSGTYMSDSGVLVVKVCV | inactive
VSYVGLDSDICSFNWLSLLA | inactive
LNIMVE | inactive
MPLYCNKMGCPLGKGMHMCH | inactive
PGWVDHIEAISRTVRGWFGP | 1.77 ± 0.12
SLIFQDGGDNVNDLKVCVDY | inactive
VDKWDCLSYSNIVGLMRLDV | inactive
TSVCSHSEVCGWSYYTDLLS | inactive
KFDGLYNSFTVMNFAIMVYE | 1.65 ± 0.12

Substance | amyloid nucleation score
VMCLPLPKFI | inactive
CKVTHSLI | inactive
LGVFSRRACYLFRICLTELI | inactive
NFVRRHWRWRGMSFSLVNSY | inactive
RFFNFPGNLKLSHVDLIAIW | 0.214 ± 0.64
NLAIL | inactive
CFSELIYMLLNVDGNFSLRV | inactive
GFGHGLKFRPRDRWGSIYPY | inactive
NCFMRLMVFAKRVIGCLQPP | 0.15 ± 0.43
CDNYVLPNYRYLSGFFKFGL | inactive
NCYNQYRSSWRLTCCLF | 3.34 ± 0.064
VRAMCLPHV | inactive
CSAFAYRSSWRFAWNTIFDY | inactive
RFYLIKPAI | inactive
RSGHRGHYKFEL | inactive
SDCYCNSQAVAWLFDRVFVF | inactive
SLAIMCCKIWPLLIMYILIT | inactive
PYLRMG | inactive
TASYSLVVVVENRKSCMVDN | inactive
RMTKTKI | inactive
FEIRLFISGQDQAHGCCPWY | inactive
GRILLYLNEFFSGRIISLHK | inactive
MIRLNNRARRNLLRLRVDRQ | inactive

Substance | amyloid nucleation score
KNTISCPCWYINRCLVYNNI | 0.97 ± 0.17
WLLLLSK | inactive
EQIPMKSVEGEYWLTVIVGN | inactive
AVYLCI | inactive
SYLKRGKSVAIQLTYGS | 0.405 ± 0.67
ADKRFI | inactive
EINMKSLV | inactive
YIASLLDYFCMQEDQAYFDY | inactive
LYFACPTLYLFRRRVNVTHP | inactive
YFYSSDALPSIS | inactive
CSGHYLFILLGFDTYNGEVF | inactive
HFMMYMLQRVHELFILSKSM | inactive
SIDIVVVWTGAIQDFRVLCL | -0.594 ± 1.1
RSWESV | inactive
NFMYTWKRSMFYSNCKH | inactive
LYYRGLRQRLTPKLGRFRLC | inactive
FVIGRI | inactive
SMDVKHRR | inactive
FSSFLISYRYLIVFRQMVSI | inactive
AVTKLILFVVSGGMLRVLEF | inactive
SLRWLISESAMRVKTMWRGG | inactive
IIYVNTSEGVSVFRNWSDDV | inactive
MYRLVGHLTIHVVMVLAQWW | inactive

Substance | amyloid nucleation score
RHWIWLMQWKD | 1.11 ± 0.14
TVEKTWKTVYIYKDSVTLRN | 1.33 ± 0.12
VPCMRNFDLYLKSVTDRLDK | inactive
FQMKCNFWKI | 1.24 ± 0.077
QQCVTLQIYTMFKLRDYPA | 0.503 ± 0.24
SYVNIFHDGIIMNSYVAWGH | inactive
ATDCLCEQRPVFPNKVKWQS | inactive
TRFDSVVMRKFYWVGSVRGL | inactive
RLSMPPRIFMPNHNCIDHAS | inactive
SIPRRNRDGLAWNARHNLQY | inactive
LRRYALGLSYCLEVK | inactive
AMIMSFFWRKVT | inactive
CFASTRSGVILNYTMVVVDF | 1.78 ± 0.098
QVLTFVYFHDNVMVLGWEYS | 0.206 ± 0.78
LFDVKDRSTMVVVIPCFHGS | 2.23 ± 0.065
NRRWILRRLLPSVNLSE | inactive
RYRSVNVYWIAVLRTWSAVI | inactive
WIERAAAALVLDLLCSKRRA | inactive
LWKLSSNSYWFVSCNGLKYS | inactive
SQVFTVALNVPNNR | inactive
HLGYPVVLVLLLPSDDSGHL | inactive
TYLIYGGG | inactive
HKPFNFYLGLPLTVV | inactive

Substance | amyloid nucleation score
VSNDLNFILYAPTNVVMSTY | 1.25 ± 0.14
LSESYDRQRFKSTF | 0.694 ± 0.21
IKRSGGYVGFCRLVERSQRG | inactive
ANVLFEVSACLAKGIVKVRR | inactive
CGRRALSTELIVCLCSPFYV | inactive
KTACFLVNCLNYQRAERTLR | 1.23 ± 0.18
LYMVINYMKCVARHGTQNDR | inactive
RKQRNWCTTPVVRFRVYGYA | inactive
VGFPESPFDSLCAMCALQWV | inactive
SCTELFTPKGR | inactive
GKVSAFCMHGGYTCDLSVEL | inactive
MDSPTGLALDG | inactive
EDGLGSYFNKKVNATCLNLA | inactive
ISGKSHSFCCVTLFHLREGI | 1.12 ± 0.17
SRSDKNHRNVANLNGVWCVT | inactive
GNYIITLY | inactive
MSKARFRWSDNTDPFFSVGQ | 0.196 ± 0.51
GRCSQGSLGSAG | inactive
GFAGMLYDLLPFGNWSLPSH | -0.127 ± 0.75
ICKRYYLPINFRG | inactive
RHGKIAAS | inactive
YMYELVTSRFKRNQVMCVID | inactive
VRDCTSQLINDGNNLVPGMW | inactive

Substance | amyloid nucleation score
EPDFEHIVCAFMGSTTGYYW | inactive
FECGRFMGLVVLAVRSGNVM | inactive
SDGSNKVLESRCDSLHNVIV | inactive
SNRGVADLDLRGLWTARE | inactive
LVLVSTFMHVGDVCYHMYY | 2.99 ± 0.057
AWNFNLKLKELRKTMTS | inactive
GPDWYWNLNV | inactive
ELAFMNYYNNECSRPLLSSP | inactive
SLIITTLTHEYCMCHRIWST | 2.25 ± 0.071
YNSYSSYKIVKLY | inactive
WLYARISADHDCLLKPELRM | inactive
SIVSRLF | inactive
CSAYNLSYHGGRDVRCRNTF | inactive
TRVLSTSGFNQRPNCWFSTM | inactive
GLLAFKVLISKASVDFYNVS | -0.134 ± 0.4
NMVIV | inactive
YFVIIYWLAPHHSNLLISFP | inactive
MPYVSKVYHYRYT | inactive
MAGCAMRVRSYMGMKSHSEC | -0.353 ± 0.74
SCLHYVTVY | inactive
ITSCRWVALKYLWSVFSLLI | inactive
PTYAC | inactive
YWSIKELWRFRQLVWRKYIV | inactive

Substance | amyloid nucleation score
GMRCEYMILTFGLSWKLLLI | inactive
VNYYRCWLVSIRYYSLHDHL | 2.35 ± 0.055
HYRVLPPAVVRRRVMLL | inactive
CSLGLLMVQRERC | 1.38 ± 0.098
RYVIIMS | inactive
TFSISSGSASYCVSSVDSS | inactive
YCQESRSCWAQSYICEGVSL | -0.253 ± 1.1
PCASLM | inactive
HSSSVTCI | inactive
FSTMKLISMHCRVS | inactive
LFVNNVVFHFIFLCPVHRTV | 2.75 ± 0.06
KDLDGVLFGNANWKIICEL | inactive
NGFRI | inactive
HFSFLL | 1.37 ± 0.084
LNWLITYLGKR | 2.24 ± 0.092
GDRVSEVTDCVFQAISIRCA | inactive
GKWGWLIASWREFTS | inactive
YCKIKLIQGNRFNEYISYCD | 2.56 ± 0.054
YLFRVTLNVALILMLSSRCE | inactive
GIFLSEWWLGSVSCVRTNVP | inactive
YLDRTSSMVTLVVSRGIF | inactive
